Results from article PMC7659345, “Viral rhodopsins 1 are an unique family of light-gated cation channels” (Nature Communications, 2020).

B1: OLPVR1 (viral rhodopsin group 1, viral channelrhodopsin) (Organic Lake phycodnavirus) (protein)
chain: MDNIIMTAYISIFVQIITAIISVYGLFIPLNFKDIILREILILELIVQIIEFIFYIWLIITLQSINEDITYVRYFDWVLTTPVMLLTTVYFFEYMNSDDGIRKKEINDRDYVYLFYICLSNFFMLLIGYLGETKQINKMLTLFGGSFFLFLTFYLLYVKYTKENWMNYIVFYFMFLVWFLYGFAFMFPFSIKNQMYNILDIVSKNIYSIFIFIVILNQSYKLL
B2: VirChR1 (viral channelrhodopsin 1, viral rhodopsin group 1) (uncultured virus (Tara Oceans metagenomic contig TARA-146-SRF-0.22-3-C376786_1)) (protein)
chain: MKDKELLLLTVKISLVVQIISGIVSSFGIFIKLAPKDYILRDILIIETVVQIVEAIFYVYIYLSLESLDNNVITSRRYFDWVITTPIMLISTILFMRYNIRILYDKSKNKQNRQNKPKSNLTTYNVIKNNKDTIIKIVIGNFIMLCFGYLGEVDILSKTISIPIGFIFFFYVFYLIWREFGSYTQQNQILFWVLFIVWGLYGVSACLPVLQKNICYNILDIISKNFYGLYIFYYIYQHRLVV

What was measured:
Asp76 (position 76, …) = experiment: UV-vis; conditions: 10 mM citrate, 10 mM MES, 10 mM HEPES, 10 mM MOPS, 10 mM CHES and 10 mM CAPS. The pH was adjusted with HCl or NaOH in steps of 0.5-0.7 units.; Dark (ground) state with all-trans retinal bound; purified, solubilised protein
Asp80 (position 80, …) = experiment: UV-vis; conditions: 10 mM citrate, 10 mM MES, 10 mM HEPES, 10 mM MOPS, 10 mM CHES and 10 mM CAPS. The pH was adjusted with HCl or NaOH in steps of 0.5-0.7 units.; Dark (ground) state with all-trans retinal bound; purified, solubilised protein

Protein	pKa (Asp76 (position 76, …))	pKa (Asp80 (position 80, …))
B1	4.8	
B2		3.5
